Consider nine molecules from patent US20210054078A1.

Residue numbers refer to the chain shown, from its start. Some results are limits rather than exact numbers.

Assay [1] has as its target human PD-L1 (soluble protein of the kinetic measurements) (human) (UniProt Q9NZQ7). Kind of assay: dissociation rate constant of scFv phage clone, method not named.
In assay [2] the target is human PD-L1 on hPD-L1/CHO-K1 overexpressing cells (human) (UniProt Q9NZQ7). Kind of assay: flow cytometry, scFv phage supernatant on hPD-L1/CHO-K1 cells.
In assay [3] the target is Human PD-L1-HisTag (#10084-H08H, Sino Biological Inc.) (human) (UniProt Q9NZQ7). Kind of assay: ELISA, scFv phage supernatant on coated His-tag PD-L1, anti-M13-HRP.
The target in assay [4] is Mouse PD-L1-HisTag (#50010-M08H, Sino Biological Inc.) (mouse) (UniProt Q9EP73). The description is as above.
Assay [5] deals with mouse PD-L1 (soluble protein of the kinetic measurements) (mouse) (UniProt Q9EP73). Kind of assay: dissociation rate constant of scFv phage clone, method not named.
mouse PD-L1 (soluble protein of the kinetic measurements) (mouse), sequence (Q9EP73 19-238 limits assumed): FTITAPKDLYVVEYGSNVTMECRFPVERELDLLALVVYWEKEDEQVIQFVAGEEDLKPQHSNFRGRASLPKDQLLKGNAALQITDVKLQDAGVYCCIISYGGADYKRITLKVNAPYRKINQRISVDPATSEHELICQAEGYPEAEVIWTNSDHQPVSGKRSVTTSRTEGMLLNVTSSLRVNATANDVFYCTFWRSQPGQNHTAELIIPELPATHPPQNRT

human PD-L1 on hPD-L1/CHO-K1 overexpressing cells (human), sequence (Q9NZQ7 19-290): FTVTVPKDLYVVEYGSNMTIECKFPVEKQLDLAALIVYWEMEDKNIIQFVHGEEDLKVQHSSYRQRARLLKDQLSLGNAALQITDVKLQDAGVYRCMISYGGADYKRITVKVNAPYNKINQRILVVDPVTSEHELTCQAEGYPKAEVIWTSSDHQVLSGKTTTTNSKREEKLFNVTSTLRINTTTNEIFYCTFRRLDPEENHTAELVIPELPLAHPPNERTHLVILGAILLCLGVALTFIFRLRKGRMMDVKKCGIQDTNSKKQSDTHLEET
human PD-L1 (soluble protein of the kinetic measurements) (human), sequence (Q9NZQ7 19-238 limits assumed): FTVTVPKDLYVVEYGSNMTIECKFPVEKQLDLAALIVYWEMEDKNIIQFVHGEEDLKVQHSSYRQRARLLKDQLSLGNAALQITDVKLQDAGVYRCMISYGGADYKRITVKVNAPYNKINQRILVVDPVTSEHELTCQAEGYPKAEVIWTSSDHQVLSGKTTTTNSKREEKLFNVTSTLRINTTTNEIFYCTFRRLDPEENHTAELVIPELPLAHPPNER
Mouse PD-L1-HisTag (#50010-M08H, Sino Biological Inc.) (mouse), sequence (Q9EP73 19-238 limits assumed, stated change not applied): as the sequence (Q9EP73 19-238 limits assumed) above
Human PD-L1-HisTag (#10084-H08H, Sino Biological Inc.) (human), sequence (Q9NZQ7 19-238 limits assumed): as the sequence (Q9NZQ7 19-238 limits assumed) above

B1: 1G1.D8 scFv phage clone (scFv, part only; not given: scFv linker, part only)
scFv, part: QVQLVESGGGLVQPGRSLRLSCAASGFTFDDYAMHWVRQAPGKGLEWVSGISWNSGSIGYADSVKGRFTISRDNAKNSLYLQMNSLRAEDTAVYYCAKPRDISSWLGMDVWGQGTTVTVSSDIQMTQSPSSVSASVGDRVTITCRASQDISSWLAWYQQKPGKAPKLLIYAASSLQSGVPSRFSGSGSGTDFTLTISSLQPEDSATYYCQQTTNFPYTFGQGTKLEIKR
For B1, in assay [1], the koff is 0.000242 s⁻¹.

B2: 1G1 scFv phage clone (scFv, V domains shown, part only)
VH: QVQLVESGGGLVQPGRSLRLSCAASGFTFDDYAMHWVRQAPGKGLEWVSGISWNSGSIGYADSVKGRFTISRDNAKNSLYLQMNSLRAEDTAVYYCAKPRDISSWLGMDVWGQGTTVTVSS
VL: DIQMTQSPSSVSASVGDRVTITCRASQDISSWLAWYQQKPGKAPKLLIYAASSLQSGVPSRFSGSGSGTDFTLTISSLQPEDSATYYCQQTNNFPYTFGQGTKLEIKR
modifications: scFv linker not given; phage display
With B2, in assay [2], the % Gated in M1 was found to be 99.4%; the Geo Mean in M1 amounted to 184; the Geo Mean, all events came to 181; the Mean in M1 turned out to be 248. Further, in assay [2], the Mean, all events was 246. The molecule also returned a koff in assay [1] of 0.000152 s⁻¹. Besides, the OD450-630 in assay [3] turned out to be 1.38. The same molecule had an OD450-630 in assay [4] of 0.35.

B3: 1G1.E12 scFv phage clone (scFv, V domains shown, part only)
VH: B2 VH
VL: B2 VL with N92V, N93T
modifications: scFv linker not given
In turn, B3 yielded a koff in assay [1] of 0.000268 s⁻¹.

B4: ME4 scFv phage clone (scFv, V domains shown, part only)
VH: QVQLVESGAEVKKPGSSVKVSCKASGGTFNNYAVSWVRQAPGQGLEWMGRIIPILGIANYAQTFQGRVTITADKSTTTAYMELSSLRSEDTAVYYCARSYSGYAEGAFDIWGQGTMVTVSS
VL: QFVLTQPPSVSGAPGQRVTISCTGSSSNIGAGYDVHWYQQLPGTAPKVLIYGNSDRPSGVPDRFSGSKSGTSASLAITGLQGEDKATYYCQSYDSRLSGPVFGTGTKVTVLG
modifications: scFv linker not given; phage display
As to B4, the dissociation rate constant (koff) in assay [1] was 0.000186 s⁻¹; in assay [5] it was 0.000374 s⁻¹. For the same molecule, the OD450-630 in assay [3] is 1.66; in assay [4], 1.44.

B5: ME4.B12 scFv phage clone (scFv, V domains shown, part only)
VH: B4 VH with Y100S, S101F, A104S, E105V
VL: B4 VL
modifications: scFv linker not given
Turning to B5, the koff amounted to 0.000177 s⁻¹ in assay [1] and 0.000753 s⁻¹ in assay [5].

B6: ME4.A2 scFv phage clone (scFv, V domains shown, part only)
VH: B4 VH with Y100S, S101R, E105H
VL: B4 VL
modifications: scFv linker not given
Turning to B6, the values for the koff in assay [1] and in assay [5] were 0.000183 s⁻¹ and 0.000852 s⁻¹, respectively.

B7: ME4.B10 scFv phage clone (scFv, V domains shown, part only)
VH: B4 VH with Y100A, S101R, E105H
VL: B4 VL
modifications: scFv linker not given
Regarding B7, the figures for the koff in assay [1] and in assay [5] were 0.00016 s⁻¹ and 0.000467 s⁻¹, respectively.

B8: ME4.A11 scFv phage clone (scFv, V domains shown, part only)
VH: B4 VH with Y100R, S101G, E105H
VL: B4 VL
modifications: scFv linker not given
For B8, the koff in assay [1] turned out to be 7.86e-05 s⁻¹; in assay [5], 0.000486 s⁻¹.

B9: ME4.A12 scFv phage clone (scFv, V domains shown, part only)
VH: B4 VH with Y100H, S101W, E105H
VL: B4 VL
modifications: scFv linker not given
For the molecule B9, the koff in assay [1] is < 1e-07 s⁻¹; in assay [5] it was 0.00101 s⁻¹.
